The source of these data is PMC7346098 (Biochemistry, 2020).

This experiment deals with T1, KaiC_(S431E,T432E) (Synechococcus elongatus (PCC 7942), UniProt Q79PF4 1-519, S431E | T432E).
T1 sequence (looked up): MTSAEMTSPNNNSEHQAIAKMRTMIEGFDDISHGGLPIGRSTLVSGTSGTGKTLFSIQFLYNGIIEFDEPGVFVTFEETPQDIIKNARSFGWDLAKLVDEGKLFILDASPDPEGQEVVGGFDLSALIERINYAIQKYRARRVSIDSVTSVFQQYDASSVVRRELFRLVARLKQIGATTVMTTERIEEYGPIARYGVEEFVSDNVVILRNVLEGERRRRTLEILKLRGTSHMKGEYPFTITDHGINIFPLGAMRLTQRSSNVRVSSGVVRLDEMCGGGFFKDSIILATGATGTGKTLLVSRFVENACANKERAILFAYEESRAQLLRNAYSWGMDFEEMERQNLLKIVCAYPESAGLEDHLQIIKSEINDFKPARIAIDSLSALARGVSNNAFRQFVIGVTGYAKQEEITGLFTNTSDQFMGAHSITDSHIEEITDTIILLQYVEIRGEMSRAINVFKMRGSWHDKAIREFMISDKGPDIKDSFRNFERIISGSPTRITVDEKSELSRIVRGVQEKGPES
The experiment is described as follows: fluorescence polarisation. (Fluorescence polarisation rises when a labelled molecule tumbles more slowly, as on binding a larger partner.)

B1: WT-KaiB (natural protein, Synechococcus elongatus (PCC 7942), UniProt Q79PF5 1-102, looked up)
chain: MSPRKTYILKLYVAGNTPNSVRALKTLKNILEVEFQGVYALKVIDVLKNPQLAEEDKILATPTLAKVLPLPVRRIIGDLSDREKVLIGLDLLYGELQDSDDF
For B1, the binding result is “binds”.
